Test results from patent US20150150950.

Experiments:
[1] = system: inactive wildtype GST-GSK3β (K^84A kinase inactivating mutation)
[2] = system: GST-GSK3β T^390A/T^43A double mutant (kinase inactive, K^84A)
[3] = system: GST-GSK3β T^43A mutant (kinase inactive, K^84A)
[4] = system: purified active wildtype GST-GSK3β
[5] = system: GST-GSK3α (Cell Signaling, boiled to inactivate)
[6] = system: active GST-GSK3β-T^43A mutant
[7] = system: GST-GSK3β T^390A mutant (kinase inactive, K^84A)
[8] = system: Recombinant kinase-active GSK3α
[9] = system: active GST-GSK3β-T^390A mutant

Chain of purified recombinant active p38 MAPK (Cell Signaling) (Q16539 2-360): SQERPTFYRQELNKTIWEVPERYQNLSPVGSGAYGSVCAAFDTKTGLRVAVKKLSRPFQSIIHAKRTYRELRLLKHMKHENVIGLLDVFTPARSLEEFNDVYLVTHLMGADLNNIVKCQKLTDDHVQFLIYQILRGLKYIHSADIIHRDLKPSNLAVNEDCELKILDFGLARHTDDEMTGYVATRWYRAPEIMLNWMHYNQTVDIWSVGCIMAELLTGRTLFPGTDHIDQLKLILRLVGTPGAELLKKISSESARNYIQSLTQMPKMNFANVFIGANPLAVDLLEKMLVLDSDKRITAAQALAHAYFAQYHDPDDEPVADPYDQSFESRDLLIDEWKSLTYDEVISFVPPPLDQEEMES
Chain of Recombinant kinase-active GSK3α (P49840 2-483): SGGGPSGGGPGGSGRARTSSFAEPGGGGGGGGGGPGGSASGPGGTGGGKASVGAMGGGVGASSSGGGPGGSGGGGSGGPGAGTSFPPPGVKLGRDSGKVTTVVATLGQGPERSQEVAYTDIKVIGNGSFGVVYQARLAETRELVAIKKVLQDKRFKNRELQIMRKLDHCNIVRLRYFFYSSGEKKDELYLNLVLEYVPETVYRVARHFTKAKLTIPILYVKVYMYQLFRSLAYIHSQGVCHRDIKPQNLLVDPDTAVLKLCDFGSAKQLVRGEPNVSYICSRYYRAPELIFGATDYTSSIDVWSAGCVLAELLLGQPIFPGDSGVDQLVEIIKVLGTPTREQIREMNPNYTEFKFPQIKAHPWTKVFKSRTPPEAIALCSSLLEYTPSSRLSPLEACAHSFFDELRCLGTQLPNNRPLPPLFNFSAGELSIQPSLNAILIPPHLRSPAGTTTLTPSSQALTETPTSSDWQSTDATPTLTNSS
Chain of p38 MAPK in 293T cells (Q16539 2-360): as the sequence (Q16539 2-360) above

Q: With p38 MAPK in 293T cells as the substance, how does the “in vitro p38 MAP kinase assay (^32P incorporation into GSK3β)” value [1] read?
A: p38 MAPK immunoprecipitated from MKK6 thymocytes or MKK6-transfected 293T cells phosphorylated recombinant catalytically-inactive GSK3β in vitro and this phosphorylation was blocked by the p38 MAPK inhibitor

Q: “purified recombinant active p38 MAPK (Cell Signaling)” was tested. Which “in vitro kinase assay (^32P incorporation into GSK3β)” value [1] did it give?
A: A purified recombinant activated p38 MAPK also phosphorylated GSK3β in vitro and this phosphorylation was blocked by SB203580

Q: What about the “in vitro kinase assay (^32P incorporation)” value [2] of the same substance?
A: phosphorylation of the GSK3β-T^43A/T^390A mutant was abrogated

Q: And the “in vitro kinase assay (^32P incorporation)” value [3]?
A: p38 MAPK was still able to partially phosphorylate a GSK3β-T^43A mutant

Q: What about the “GSK3β activity (in vitro kinase assay, GSM substrate peptide) after preincubation with p38 MAPK” value [4] of the same substance?
A: p38 MAPK inhibited both wild-type GSK3β and GSK3β-T^43A mutant

Q: And the “in vitro kinase assay (^32P incorporation into GSK3α)” value [5]?
A: GSK3α was not phosphorylated by recombinant p38 MAPK in vitro

Q: And the “GSK3β activity (in vitro kinase assay, GSM substrate peptide) after preincubation with p38 MAPK” value [6]?
A: p38 MAPK inhibited both wild-type GSK3β and GSK3β-T^43A mutant

Q: And the “in vitro kinase assay (^32P incorporation)” value [7]?
A: Phosphorylation of the GSK3β-T^390A mutant by p38 MAPK was partially reduced but not abrogated

Q: What about the “GSK3α activity (in vitro kinase assay, GSM substrate peptide) after preincubation with p38 MAPK” value [8] of the same substance?
A: p38 MAPK did not affect the activity of GSK3α

Q: recombinant active Akt (Cell Signaling) was tested. Which “GSK3β activity (in vitro kinase assay, GSM substrate peptide) after preincubation with Akt” value (“GSK3β activity … with Akt” for short) [4] did it give?
A: Akt inhibited wild-type GSK3β and the two mutants

Q: And the “GSK3β activity … with Akt” value [6]?
A: Akt inhibited wild-type GSK3β and the two mutants

Q: And the “GSK3β activity … with Akt” value [9]?
A: Akt inhibited wild-type GSK3β and the two mutants

Q: What does the source list for recombinant active ERK (Cell Signaling)?
A: in vitro kinase assay (^32P incorporation) [3]: The T^43A mutation but not the T^390A mutation abrogated phosphorylation of GSK3β by ERK; in vitro kinase assay (^32P incorporation) [7]: The T^43A mutation but not the T^390A mutation abrogated phosphorylation of GSK3β by ERK
